Measured values as given in patent publication US20080058263A1 (published 2008).

Tests used:
Experiment in all cases: receptor-Fc IP
VEGFR-1-Fc = biological target: T1, VEGFR-1-Fc (UniProt P17948 27-338)
T1 construct: domain: first three Ig domains; expressed in Drosophila S2 cells, purified on Protein A sepharose; also called VEGFR-1-Fc fusion protein; not shown: Fc fragment from the Signal-pIgPlus vector
Summary of the method: (§1)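 Binding of ligand from sample supernatant measured by pentahistidine-antibody immunoprecipitation. IP mix: PBS with 1.5% BSA, 0.06% Tween 20, 3 μg/ml heparin and 400 ng/ml fusion protein, added 1:2 to sample supernatant.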

VEGFR-2-Fc = biological target: T2, VEGFR-2-Fc (UniProt P35968 20-322)
T2 construct: domain: first 3 Ig domains; conditioned supernatant of 293T cells; also called VEGFR-2-Fc fusion protein; not shown: Fc fragment of the pIg vector
Summary of the method: as §1

VEGFR-3-Fc = biological target: T3, VEGFR-3-Fc (UniProt P35916 25-328)
T3 construct: domain: first three Ig domains; conditioned supernatant of 293T cells; also called VEGFR-3-Fc fusion protein; not shown: Fc fragment of the pIg vector
T3 sequence (looked up): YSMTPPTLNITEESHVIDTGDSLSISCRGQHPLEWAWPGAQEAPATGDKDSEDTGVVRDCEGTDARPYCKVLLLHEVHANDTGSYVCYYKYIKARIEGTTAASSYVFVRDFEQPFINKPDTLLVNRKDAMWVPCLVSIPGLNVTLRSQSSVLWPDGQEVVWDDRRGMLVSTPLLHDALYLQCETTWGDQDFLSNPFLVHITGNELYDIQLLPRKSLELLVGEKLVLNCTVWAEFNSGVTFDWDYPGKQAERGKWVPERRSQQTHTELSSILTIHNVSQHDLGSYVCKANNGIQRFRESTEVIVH
Summary of the method: as §1

T1 sequence (P17948 27-338): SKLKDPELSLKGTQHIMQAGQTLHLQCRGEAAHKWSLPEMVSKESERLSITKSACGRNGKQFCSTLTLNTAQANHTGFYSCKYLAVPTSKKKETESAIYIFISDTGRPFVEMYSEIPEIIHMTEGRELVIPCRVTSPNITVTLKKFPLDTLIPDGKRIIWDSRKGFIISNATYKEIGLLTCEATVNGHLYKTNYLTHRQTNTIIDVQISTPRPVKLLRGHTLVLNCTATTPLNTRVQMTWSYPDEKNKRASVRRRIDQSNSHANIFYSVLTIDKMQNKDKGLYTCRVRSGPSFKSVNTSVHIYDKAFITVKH
T2 sequence (P35968 20-322): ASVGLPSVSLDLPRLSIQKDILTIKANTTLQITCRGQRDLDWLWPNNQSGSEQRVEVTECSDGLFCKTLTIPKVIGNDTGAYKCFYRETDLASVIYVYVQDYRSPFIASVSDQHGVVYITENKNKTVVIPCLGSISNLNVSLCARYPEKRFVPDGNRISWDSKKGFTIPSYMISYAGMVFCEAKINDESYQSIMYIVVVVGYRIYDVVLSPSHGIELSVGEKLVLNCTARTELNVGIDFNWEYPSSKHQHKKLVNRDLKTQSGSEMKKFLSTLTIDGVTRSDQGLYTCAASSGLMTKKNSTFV

- binding result (VEGFR-1-Fc): no binding
- binding result (VEGFR-2-Fc): no binding
- binding result (VEGFR-3-Fc): no binding
B1: 82-3 (ligand)
chain: AHYNTEILKFMDVYQRSYCHPIETLVDIFQEFGVATNTFFKPPCVSVYRCGGCCNSEGLQCVPTEESNITMQIMRIKPHQGQHIGEMSFLQHNKCECRPKKD
